The supplement of paper PMC10065799, “High-throughput profiling of sequence recognition by tyrosine kinases and SH2 domains using bacterial peptide display” (eLife, 2023)

How the values were obtained:
AncSZ = assay: phosphorylation enrichment, bacterial display (enrichment ratio); higher = better substrate or ligand; peptides without Tyr show the background
EPHB1 = EPHB1 (UniProt P54762); assay: as above
EPHB2 = EPHB2 (UniProt P29323); assay: as above
FGFR1 = FGFR1 (UniProt P11362); assay: as above
FGFR3 = FGFR3 (UniProt P22607); assay: as above
Fer (mouse) = assay: as above
Fes = Fes (UniProt P07332); assay: as above
Fyn = Fyn (UniProt P06241); assay: as above
Hck = Hck (UniProt P08631); assay: as above
Jak2 = Jak2 (UniProt O60674); assay: as above
MERTK = MERTK (UniProt Q12866); assay: as above
c-Abl (mouse) = assay: as above
c-Src = assay: as above
Grb2 SH2 = Grb2 SH2 (UniProt P62993); assay: SH2 binding enrichment of the phosphorylated peptide, bacterial display (enrichment ratio); higher = better substrate or ligand; peptides without Tyr show the background
SHP2-C SH2 = assay: as above
c-Src SH2 = assay: as above
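For SH2 binding enrichment of the phosphorylated peptide, bacterial display in this document: peptide library displayed on the E. coli surface as eCPX fusions, selected cells deep-sequenced, score is each peptide's frequency after selection divided by its frequency in the input.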
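For phosphorylation enrichment, bacterial display in this document: 11-residue human phosphosite peptides and single-mutation variants displayed on the E. coli surface, counted by deep sequencing, each peptide's frequency after selection divided by its frequency in the unselected input library; frequency after pTyr selection over input frequency; kinase dosed for 20-30% of maximal phosphorylation in three min.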

EPHB2, sequence (P29323 whole entry, looked up): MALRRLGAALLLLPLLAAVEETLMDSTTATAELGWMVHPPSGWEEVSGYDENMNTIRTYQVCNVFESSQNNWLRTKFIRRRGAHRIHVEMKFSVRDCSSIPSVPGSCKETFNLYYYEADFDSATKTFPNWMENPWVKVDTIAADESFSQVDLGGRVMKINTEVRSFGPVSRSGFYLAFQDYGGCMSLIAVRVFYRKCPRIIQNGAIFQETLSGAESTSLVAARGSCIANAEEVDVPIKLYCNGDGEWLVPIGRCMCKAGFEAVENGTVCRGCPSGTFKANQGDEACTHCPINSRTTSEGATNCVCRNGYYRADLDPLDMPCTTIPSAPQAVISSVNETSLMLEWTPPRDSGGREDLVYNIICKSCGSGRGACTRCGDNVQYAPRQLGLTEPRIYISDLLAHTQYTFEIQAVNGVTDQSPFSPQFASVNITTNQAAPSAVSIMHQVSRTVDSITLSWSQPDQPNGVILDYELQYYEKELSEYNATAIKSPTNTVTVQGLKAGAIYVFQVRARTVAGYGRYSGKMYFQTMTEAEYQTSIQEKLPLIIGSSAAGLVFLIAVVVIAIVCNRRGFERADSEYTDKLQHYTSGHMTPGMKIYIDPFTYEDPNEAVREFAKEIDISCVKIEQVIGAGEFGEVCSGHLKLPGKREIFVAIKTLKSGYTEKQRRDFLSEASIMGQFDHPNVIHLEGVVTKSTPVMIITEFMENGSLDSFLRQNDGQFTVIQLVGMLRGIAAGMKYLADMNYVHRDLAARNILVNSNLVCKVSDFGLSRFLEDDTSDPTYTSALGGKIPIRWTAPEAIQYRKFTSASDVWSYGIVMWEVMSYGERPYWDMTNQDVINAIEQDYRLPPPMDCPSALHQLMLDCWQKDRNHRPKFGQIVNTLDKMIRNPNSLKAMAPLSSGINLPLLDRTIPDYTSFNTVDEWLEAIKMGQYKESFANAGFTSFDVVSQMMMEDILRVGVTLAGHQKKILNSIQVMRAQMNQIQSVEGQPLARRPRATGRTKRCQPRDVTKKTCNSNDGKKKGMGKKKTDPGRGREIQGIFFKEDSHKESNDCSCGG
Jak2, sequence (O60674 whole entry, looked up): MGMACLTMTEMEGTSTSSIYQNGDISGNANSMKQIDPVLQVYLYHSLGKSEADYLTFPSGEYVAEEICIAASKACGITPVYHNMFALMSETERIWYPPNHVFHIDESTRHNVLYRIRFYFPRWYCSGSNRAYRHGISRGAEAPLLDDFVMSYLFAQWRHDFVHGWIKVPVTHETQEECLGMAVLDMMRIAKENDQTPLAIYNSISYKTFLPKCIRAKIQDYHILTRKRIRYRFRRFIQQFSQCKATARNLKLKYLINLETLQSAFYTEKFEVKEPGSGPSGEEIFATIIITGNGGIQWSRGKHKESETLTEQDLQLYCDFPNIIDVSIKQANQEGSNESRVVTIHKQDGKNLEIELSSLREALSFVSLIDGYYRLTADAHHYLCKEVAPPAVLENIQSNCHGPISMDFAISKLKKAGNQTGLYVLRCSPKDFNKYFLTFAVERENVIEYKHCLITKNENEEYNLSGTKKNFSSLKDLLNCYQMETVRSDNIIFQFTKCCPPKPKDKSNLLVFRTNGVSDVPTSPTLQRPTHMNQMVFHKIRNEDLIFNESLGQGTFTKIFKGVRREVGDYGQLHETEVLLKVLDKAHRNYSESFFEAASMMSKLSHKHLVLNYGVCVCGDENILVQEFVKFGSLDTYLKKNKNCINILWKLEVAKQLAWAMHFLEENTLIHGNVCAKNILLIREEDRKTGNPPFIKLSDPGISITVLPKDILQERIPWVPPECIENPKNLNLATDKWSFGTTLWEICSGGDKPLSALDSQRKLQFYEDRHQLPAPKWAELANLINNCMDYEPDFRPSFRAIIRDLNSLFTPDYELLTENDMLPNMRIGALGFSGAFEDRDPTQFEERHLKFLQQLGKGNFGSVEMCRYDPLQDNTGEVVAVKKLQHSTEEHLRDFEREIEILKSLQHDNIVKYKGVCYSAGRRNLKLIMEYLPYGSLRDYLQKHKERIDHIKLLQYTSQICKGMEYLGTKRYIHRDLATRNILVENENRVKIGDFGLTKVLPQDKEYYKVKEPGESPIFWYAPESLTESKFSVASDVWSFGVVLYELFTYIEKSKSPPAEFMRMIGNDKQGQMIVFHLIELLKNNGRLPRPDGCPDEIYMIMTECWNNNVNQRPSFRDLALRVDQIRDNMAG
FGFR1, sequence (P11362 whole entry, looked up): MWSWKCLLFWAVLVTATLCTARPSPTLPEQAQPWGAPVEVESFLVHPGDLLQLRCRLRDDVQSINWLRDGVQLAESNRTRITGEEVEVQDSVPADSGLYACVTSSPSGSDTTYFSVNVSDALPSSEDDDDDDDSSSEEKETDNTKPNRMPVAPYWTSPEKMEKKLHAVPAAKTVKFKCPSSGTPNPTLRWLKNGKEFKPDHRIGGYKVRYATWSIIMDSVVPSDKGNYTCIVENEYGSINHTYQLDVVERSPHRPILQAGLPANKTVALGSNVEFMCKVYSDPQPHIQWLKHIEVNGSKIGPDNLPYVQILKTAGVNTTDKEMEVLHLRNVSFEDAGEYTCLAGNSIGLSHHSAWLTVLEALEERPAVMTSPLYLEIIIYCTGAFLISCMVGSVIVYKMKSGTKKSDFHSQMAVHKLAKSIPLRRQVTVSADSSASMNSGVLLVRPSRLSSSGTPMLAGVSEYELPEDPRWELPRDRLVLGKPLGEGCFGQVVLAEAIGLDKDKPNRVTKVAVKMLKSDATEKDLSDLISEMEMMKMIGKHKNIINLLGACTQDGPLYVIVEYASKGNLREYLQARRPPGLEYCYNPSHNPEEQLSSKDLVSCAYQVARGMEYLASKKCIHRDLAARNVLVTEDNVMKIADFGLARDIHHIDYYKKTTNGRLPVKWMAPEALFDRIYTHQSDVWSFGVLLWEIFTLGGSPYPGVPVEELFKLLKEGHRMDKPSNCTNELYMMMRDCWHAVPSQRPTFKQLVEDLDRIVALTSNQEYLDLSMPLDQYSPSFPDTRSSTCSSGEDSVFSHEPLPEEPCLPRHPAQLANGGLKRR
Fes, sequence (P07332 whole entry, looked up): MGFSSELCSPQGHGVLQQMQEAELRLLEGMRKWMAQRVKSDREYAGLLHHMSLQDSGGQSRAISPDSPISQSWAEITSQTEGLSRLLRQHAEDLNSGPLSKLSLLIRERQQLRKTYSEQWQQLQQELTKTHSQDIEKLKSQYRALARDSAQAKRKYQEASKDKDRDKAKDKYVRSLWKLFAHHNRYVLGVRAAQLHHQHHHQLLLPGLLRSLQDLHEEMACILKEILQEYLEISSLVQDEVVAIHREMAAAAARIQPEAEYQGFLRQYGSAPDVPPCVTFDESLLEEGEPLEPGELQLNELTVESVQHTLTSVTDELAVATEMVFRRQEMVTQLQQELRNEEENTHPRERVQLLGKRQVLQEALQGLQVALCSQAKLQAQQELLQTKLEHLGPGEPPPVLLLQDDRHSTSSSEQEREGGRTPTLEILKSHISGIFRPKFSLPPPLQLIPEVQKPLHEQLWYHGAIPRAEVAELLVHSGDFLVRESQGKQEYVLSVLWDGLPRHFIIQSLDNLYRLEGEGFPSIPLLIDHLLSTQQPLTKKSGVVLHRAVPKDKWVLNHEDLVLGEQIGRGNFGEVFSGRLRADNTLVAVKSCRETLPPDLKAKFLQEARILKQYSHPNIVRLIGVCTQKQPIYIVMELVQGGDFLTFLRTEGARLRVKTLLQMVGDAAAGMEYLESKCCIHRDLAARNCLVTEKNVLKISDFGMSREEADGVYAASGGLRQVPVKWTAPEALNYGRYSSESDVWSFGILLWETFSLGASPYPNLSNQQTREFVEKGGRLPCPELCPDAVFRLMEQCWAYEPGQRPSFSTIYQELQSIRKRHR
MERTK, sequence (Q12866 whole entry, looked up): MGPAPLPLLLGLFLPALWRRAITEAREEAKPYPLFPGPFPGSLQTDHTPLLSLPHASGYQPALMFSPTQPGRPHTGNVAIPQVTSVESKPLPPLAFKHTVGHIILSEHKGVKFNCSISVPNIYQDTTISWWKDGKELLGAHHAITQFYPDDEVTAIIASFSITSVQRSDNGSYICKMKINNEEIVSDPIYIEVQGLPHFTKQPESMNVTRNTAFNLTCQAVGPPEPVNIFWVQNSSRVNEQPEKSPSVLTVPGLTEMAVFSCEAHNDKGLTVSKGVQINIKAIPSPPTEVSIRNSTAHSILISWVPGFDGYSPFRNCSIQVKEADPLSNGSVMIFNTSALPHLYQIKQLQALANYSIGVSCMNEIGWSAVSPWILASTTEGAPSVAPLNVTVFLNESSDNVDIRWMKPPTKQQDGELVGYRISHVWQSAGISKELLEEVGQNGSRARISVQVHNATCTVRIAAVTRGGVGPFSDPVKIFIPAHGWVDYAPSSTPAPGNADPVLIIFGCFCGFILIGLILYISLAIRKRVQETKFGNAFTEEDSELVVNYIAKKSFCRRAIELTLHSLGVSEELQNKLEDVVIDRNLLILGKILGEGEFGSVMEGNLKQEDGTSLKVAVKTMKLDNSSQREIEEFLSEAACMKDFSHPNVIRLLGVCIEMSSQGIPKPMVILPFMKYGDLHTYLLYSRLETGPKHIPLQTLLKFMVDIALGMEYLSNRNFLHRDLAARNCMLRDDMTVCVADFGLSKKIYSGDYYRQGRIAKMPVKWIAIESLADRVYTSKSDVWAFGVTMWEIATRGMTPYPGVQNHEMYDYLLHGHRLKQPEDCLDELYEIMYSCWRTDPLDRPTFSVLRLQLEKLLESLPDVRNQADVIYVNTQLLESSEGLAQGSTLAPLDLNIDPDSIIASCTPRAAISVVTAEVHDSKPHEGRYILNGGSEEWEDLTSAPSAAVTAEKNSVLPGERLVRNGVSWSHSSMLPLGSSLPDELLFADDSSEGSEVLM

| Sequence | SH2 binding enrichment (Grb2 SH2) | SH2 binding enrichment (SHP2-C SH2) | SH2 binding enrichment (c-Src SH2) | phosphorylation enrichment (AncSZ) | phosphorylation enrichment (EPHB1) | phosphorylation enrichment (EPHB2) | phosphorylation enrichment (FGFR1) | phosphorylation enrichment (FGFR3) | phosphorylation enrichment (Fer (mouse)) | phosphorylation enrichment (Fes) | phosphorylation enrichment (Fyn) | phosphorylation enrichment (Hck) | phosphorylation enrichment (Jak2) | phosphorylation enrichment (MERTK) | phosphorylation enrichment (c-Abl (mouse)) | phosphorylation enrichment (c-Src) |
| --- | --- | --- | --- | --- | --- | --- | --- | --- | --- | --- | --- | --- | --- | --- | --- | --- |
| VNRSGYTLIRK [ATP6V0A2_Y688] | 0.56 | 0.814 | 1.74 | 0.64 | 0.333 | 0.444 | 0.315 | 0.452 | 0.366 | 0.672 | 0.533 | 0.429 | 0.429 | 0.386 | 0.568 | 0.43 |
| KATKGYLDDPT [G6PD_Y322_E317K] | 0.888 | 0.84 | 0.489 | 0.73 | 0.431 | 0.603 | 0.529 | 0.484 | 0.329 | 0.639 | 0.405 | 0.417 | 0.755 | 0.443 | 0.451 | 0.395 |
| QITQVYGFFHE [PPP2CA_Y127_D131H_YF] | 1.03 | 0.646 | 0.745 | 1.67 | 0.788 | 1.11 | 0.647 | 1.26 | 0.72 | 1.39 | 17.8 | 14.3 | 0.915 | 5.31 | 1.14 | 9.89 |
| RSHLPYDVTPE [IQGAP3_Y1098] | 0.827 | 0.974 | 0.588 | 1.82 | 0.572 | 0.742 | 0.752 | 0.747 | 0.474 | 1.45 | 0.848 | 0.695 | 2.28 | 1 | 1.39 | 1.27 |
| PSSRDYKDNIK [PIGN_Y227_H229D] | 1.16 | 0.449 | 0.394 | 0.556 | 0.595 | 0.467 | 0.614 | 0.614 | 0.407 | 0.649 | 0.496 | 0.381 | 0.9 | 0.727 | 0.47 | 0.569 |
| AKRKNYAPVTM [CFAP47_Y557_A561T] | 1.03 | 1.16 | 1.19 | 0.459 | 0.365 | 0.364 | 0.418 | 0.34 | 0.286 | 0.518 | 0.387 | 0.371 | 0.351 | 0.431 | 0.454 | 0.445 |
| HNLDFYKKTTN [FGFR3_Y648_YF] | 1.02 | 0.602 | 0.5 | 3.51 | 1.76 | 2.13 | 1.28 | 1.68 | 2.46 | 3.91 | 0.916 | 1.15 | 5.47 | 1.95 | 3.49 | 2.23 |

The next lines start with results.

| SH2 binding enrichment (Grb2 SH2) | SH2 binding enrichment (SHP2-C SH2) | SH2 binding enrichment (c-Src SH2) | Sequence | phosphorylation enrichment (AncSZ) | phosphorylation enrichment (EPHB1) | phosphorylation enrichment (EPHB2) | phosphorylation enrichment (FGFR1) | phosphorylation enrichment (FGFR3) | phosphorylation enrichment (Fer (mouse)) | phosphorylation enrichment (Fes) | phosphorylation enrichment (Fyn) | phosphorylation enrichment (Hck) | phosphorylation enrichment (Jak2) | phosphorylation enrichment (MERTK) | phosphorylation enrichment (c-Abl (mouse)) | phosphorylation enrichment (c-Src) |
| --- | --- | --- | --- | --- | --- | --- | --- | --- | --- | --- | --- | --- | --- | --- | --- | --- |
| 0.913 | 0.861 | 0.675 | ICANKYMVESC [RPL10_Y75_K78E] | 0.982 | 0.482 | 0.502 | 0.596 | 0.659 | 0.455 | 1.14 | 0.47 | 0.574 | 0.982 | 0.432 | 0.657 | 0.53 |
| 0.784 | 0.52 | 1.16 | CVAARYMDVKG [WFIKKN2_Y93] | 0.655 | 0.535 | 0.516 | 0.445 | 0.549 | 0.442 | 0.887 | 0.419 | 0.43 | 0.696 | 0.435 | 0.56 | 0.313 |
| 1.08 | 0.586 | 0.744 | SKDQICPMKLK [RANBP17_Y823_Y823C] | 0.825 | 0.385 | 0.565 | 0.595 | 0.643 | 0.614 | 0.781 | 0.599 | 0.573 | 0.746 | 0.553 | 0.632 | 0.505 |
| 1.43 | 1.28 | 0.76 | LLREWYLQDPY [SIX3_Y225] | 1.52 | 0.947 | 0.928 | 0.867 | 1.12 | 0.938 | 1.52 | 1.08 | 0.85 | 1.11 | 0.606 | 1.11 | 1.11 |
| 0.715 | 0.563 | 0.439 | SENFTYIWWLN [PSG4_Y271_K267E_YF] | 1.47 | 0.73 | 0.771 | 0.543 | 1.03 | 0.674 | 1.59 | 0.513 | 0.559 | 1.46 | 0.404 | 0.96 | 0.355 |
| 0.861 | 0.63 | 0.527 | EYLHKYKGFKI [SYNE1_Y6953_Q6951H] | 0.903 | 0.509 | 0.509 | 0.403 | 0.57 | 0.405 | 1.01 | 0.461 | 0.437 | 1.01 | 0.453 | 0.996 | 0.501 |
| 1.04 | 0.599 | 0.567 | GLSDLYVKIHL [SYT2_Y309_P308L] | 1.26 | 0.826 | 0.615 | 0.452 | 0.804 | 0.705 | 1.45 | 0.623 | 0.613 | 1.38 | 0.428 | 0.94 | 0.495 |
| 0.75 | 0.659 | 0.502 | LNCIFYKDQTG [RS1_Y166_W163C_YF] | 1.56 | 1.1 | 1.34 | 0.563 | 1.06 | 1.44 | 2.08 | 0.552 | 0.774 | 2.06 | 0.798 | 1.24 | 1.31 |
| 0.923 | 1.13 | 0.982 | CTTIHQNYMCN [TP53_Y234_Y234Q] | 0.735 | 0.536 | 0.432 | 0.463 | 0.56 | 0.387 | 0.917 | 0.361 | 0.41 | 0.796 | 0.503 | 0.695 | 0.414 |
